The text below walks through data of US20050176123A1 (MORINAGA MILK INDUSTRY, published 2005).

Test in all cases: cell-based or functional assay
The target of test [1] is T1, papain (UniProt P00784 134-345).
T1 sequence (looked up): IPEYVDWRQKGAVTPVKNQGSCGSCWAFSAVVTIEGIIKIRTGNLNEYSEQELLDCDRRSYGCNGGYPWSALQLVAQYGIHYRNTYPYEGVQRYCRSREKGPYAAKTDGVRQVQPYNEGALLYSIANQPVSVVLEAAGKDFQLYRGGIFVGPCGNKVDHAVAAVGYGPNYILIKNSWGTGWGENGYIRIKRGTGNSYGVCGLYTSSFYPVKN

Test [2] has as its target cathepsin L.
Test [3] addresses cathepsin B.
The target in another test is cathepsin S.
In test [4] the target is T1, papain. The source holds these as a separate data set.
Test [5] concerns the target cathepsin L. The source holds these as a separate data set.
The target of test [6] is cathepsin B. This is another data set of the same source.

Where only a bound is given, the exact number is not on record here.

B1: bovine lactoferrin (manufactured by Morinaga Milk Industry Co., Ltd.) (other)
chain: APRKNVRWCTISQPEWFKCRRWQWRMKKLGAPSITCVRRAFALECIRAIAEKKADAVTLDGGMVFEAGRDPYKLRPVAAEIYGTKESPQTHYYAVAVVKKGSNFQLDQLQGRKSCHTGLGRSAGWIIPMGILRPYLSWTESLEPLQGAVAKFFSASCVPCIDRQAYPNLCQLCKGEGENQCACSSREPYFGYSGAFKCLQDGAGDVAFVKETTVFENLPEKADRDQYELLCLNNSRAPVDAFKECHLAQVPSHAVVARSVDGKEDLIWKLLSKAQEKFGKNKSRSFQLFGSPPGQRDLLFKDSALGFLRIPSKVDSALYLGSRYLTTLKNLRETAEEVKARYTRVVWCAVGPEEQKKCQQWSQQSGQNVTCATASTTDDCIVLVLKGEADALNLDGGYIYTAGKCGLVPVLAENRKSSKHSSLDCVLRPTEGYLAVAVVKKANEGLTWNSLKDKKSCHTAVDRTAGWNIPMGLIVNQTGSCAFDEFFSQSCAPGADPKSRLCALCAGDDQGLDKCVPNSKEKYYGYTGAFRCLAEDVGDVAFVKNDTVWENTNGESTADWAKNLNREDFRLLCLDGTRKPVTEAQSCHLAVAPNHAVVSRSDRAAHVKQVLLHQQALFGKNGKNCPDKFCLFKSETKNLLFNDNTECLAKLGGRPTYEEYLGTEYVTAIANLKKCSTSPLLEACAFLTR
With B1, in the test with papain [1], the “inhibition rate (%) at 10^-4M inhibitor” value was 100%, the “inhibition rate (%) at 10^-5M inhibitor” value worked out at 100%, the “inhibition rate (%) at 10^-6M inhibitor” value amounted to 100% and the “inhibition rate (%) at 10^-7M inhibitor” value was found to be 40%. For the same molecule, the “inhibition rate (%) at 10^-8M inhibitor” value with papain [1] is 0%. In addition, in the test with cathepsin L [2], the “inhibition rate (%) at 10^-4M inhibitor” value worked out at 100%, the “inhibition rate (%) at 10^-5M inhibitor” value was determined as 100%, the “inhibition rate (%) at 10^-6M inhibitor” value was 100% and the “inhibition rate (%) at 10^-7M inhibitor” value is 20%. For the same molecule, the “inhibition rate (%) at 10^-8M inhibitor” value with cathepsin L [2] was found to be 0%. Moreover, in the test with cathepsin B [3], the “inhibition rate (%) at 10^-4M inhibitor” value was 100%, the “inhibition rate (%) at 10^-5M inhibitor” value was 70%, the “inhibition rate (%) at 10^-6M inhibitor” value was determined as 10% and the “inhibition rate (%) at 10^-7M inhibitor” value came out at 0%. Besides, the “inhibition rate (%) at 10^-8M inhibitor” value with cathepsin B [3] stood at 0%. In the test with cathepsin S, the “inhibition rate (%) at 10^-4M inhibitor” value is 100%, the “inhibition rate (%) at 10^-5M inhibitor” value was found to be 80%, the “inhibition rate (%) at 10^-6M inhibitor” value turned out to be 15% and the “inhibition rate (%) at 10^-7M inhibitor” value is 0%. Also, the “inhibition rate (%) at 10^-8M inhibitor” value with cathepsin S is 0%.

B2: bovine transferrin (manufactured by Nihon Pharmaceutical Co., Ltd.) (other)
chain: DPERTVRWCTISTHEANKCASFRENVLRILESGPFVSCVKKTSHMDCIKAISNNEADAVTLDGGLVYEAGLKPNNLKPVVAEFHGTKDNPQTHYYAVAVVKKDTDFKLNELRGKKSCHTGLGRSAGWNIPMAKLYKELPDPQESIQRAAANFFSASCVPCADQSSFPKLCQLCAGKGTDKCACSNHEPYFGYSGAFKCLMEGAGDVAFVKHSTVFDNLPNPEDRKNYELLCGDNTRKSVDDYQECYLAMVPSHAVVARTVGGKEDVIWELLNHAQEHFGKDKPDNFQLFQSPHGKDLLFKDSADGFLKIPSKMDFELYLGYEYVTALQNLRESKPPDSSKDECMVKWCAIGHQERTKCDRWSGFSGGAIECETAENTEECIAKIMKGEADAMSLDGGYLYIAGKCGLVPVLAENYKTEGESCKNTPEKGYLAVAVVKTSDANINWNNLKDKKSCHTAVDRTAGWNIPMGLLYSKINNCKFDEFFSAGCAPGSPRNSSLCALCIGSEKGTGKECVPNSNERYYGYTGAFRCLVEKGDVAFVKDQTVIQNTDGNNNEAWAKNLKKENFEVLCKDGTRKPVTDAENCHLARGPNHAVVSRKDKATCVEKILNKQQDDFGKSVTDCTSNFCLFQSNSKDLLFRDDTKCLASIAKKTYDSYLGDDYVRAMTNLRQCSTSKLLEACTFHKP
B2: the entries for the “inhibition of cysteine protease activity at 10^-4 M inhibitor” value with papain [4], in the test with cathepsin L [5] and with cathepsin B [6] were 40%, above 30% and above 30%, respectively.
Turning to YEKYLGPQYVAGITNLK [human lactoferrin peptide Y679-K695], the “inhibition of cysteine protease activity at 10^-4 M inhibitor” value with papain [4] and in the test with cathepsin L [5] was above 50% each time.
